From the FLAb antibody collection

B1: unnamed (protein)
chain 1: QVQLVQSGSELKKPGASVKVSCKASGYTFTNYGMNWVRQAPGQGLEWMGWINTYTGEPTYADDFTGRFVFSLDTSVSTAYLQISSLKAEDTAVYYCARNPINYYGINYEGYVMDYWGQGTLVTVSS
chain 2: not shown
B2: unnamed (protein)
chain 1: EVQLVQSGGGLVKPGGSLRLSCAASGFTFSSFAMHWVRQAPGKGLEWISVIDTRGATYYADSVKGRFTISRDNAKNSLYLQMNSLRAEDTAVYYCARLGNFYYGMDVWGQGTTVTVSS
chain 2: EIVLTQSPGTLSVSPGERATLSCRASQSIGSSLHWYQQKPGQAPRLLIKYASQSLSGIPDRFSGSGSGTDFTLTISRLEPEDFAVYYCHQSSRLPHTFGQGTKVEIK
B3: unnamed (protein)
chain 1: EVQLVESGGGLVQPGGSLRLSCAASGFTFSSYWMSWVRQAPGKGLEWVAYIKQDGNEKYYVDSVKGRFTISRDNAKNSLYLQMNSLRAEDTAVYYCAREGILWFGDLPTFWGQGTLVTVSS
chain 2: DIQMTQSPSSLSASVGDRVTITCRASQGISNWLAWYQQKPEKAPKSLIYAASSLQSGVPSRFSGSGSGTDFTLTISSLQPEDFATYYCQQYDSYPRTFGQGTKVEIK
B4: unnamed (protein)
chain 1: QVQLQQSGTVLARPGASVKMSCKASGYSFTRYWMHWIKQRPGQGLEWIGAIYPGNSDTSYNQKFEGKAKLTAVTSASTAYMELSSLTHEDSAVYYCSRDYGYYFDFWGQGTTLTVSS
chain 2: QIVSTQSPAIMSASPGEKVTMTCSASSSRSYMQWYQQKPGTSPKRWIYDTSKLASGVPARFSGSGSGTSYSLTISSMEAEDAATYYCHQRSSYTFGGGTKLEIK
B5: unnamed (protein)
chain 1: QVQLVQSGAEVKKPGASVKVSCKASGHIFSNYWIQWVRQAPGQGLEWMGEILPGSGHTEYTENFKDRVTMTRDTSTSTVYMELSSLRSEDTAVYYCARYFFGSSPNWYFDVWGQGTLVTVSS
chain 2: DIQMTQSPSSLSASVGDRVTITCGASENIYGALNWYQQKPGKAPKLLIYGATNLADGVPSRFSGSGSGTDFTLTISSLQPEDFATYYCQNVLNTPLTFGQGTKVEIK
B6: unnamed (protein)
chain 1: EVQLVESGGGLVQPGGSLRLSCAASGYEFSRSWMNWVRQAPGKGLEWVGRIYPGDGDTNYSGKFKGRFTISADTSKNTAYLQMNSLRAEDTAVYYCARDGSSWDWYFDVWGQGTLVTVSS
chain 2: DIQMTQSPSSLSASVGDRVTITCRSSQSIVHSVGNTFLEWYQQKPGKAPKLLIYKVSNRFSGVPSRFSGSGSGTDFTLTISSLQPEDFATYYCFQGSQFPYTFGQGTKVEIK
B7: unnamed (protein)
chain 1: EVQLLESGGGLVQPGGSLRLSCAASGFTFSSYIMMWVRQAPGKGLEWVSSIYPSGGITFYADTVKGRFTISRDNSKNTLYLQMNSLRAEDTAVYYCARIKLGTVTTVDYWGQGTLVTVSS
chain 2: QSALTQPASVSGSPGQSITISCTGTSSDVGGYNYVSWYQQHPGKAPKLMIYDVSNRPSGVSNRFSGSKSGNTASLTISGLQAEDEADYYCSSYTSSSTRVFGTGTKVTVL
B8: unnamed (protein)
chain 1: QVQLVQSGAEVKKPGASVKVSCKASGYYTEAYYIHWVRQAPGQGLEWMGRIDPATGNTKYAPRLQDRVTMTRDTSTSTVYMELSSLRSEDTAVYYCASLYSLPVYWGQGTTVTVSS
chain 2: DVVMTQSPLSLPVTLGQPASISCKSSQSLLYSDAKTYLNWFQQRPGQSPRRLIYQISRLDPGVPDRFSGSGSGTDFTLKISRVEAEDVGVYYCLQGTHYPVLFGQGTRLEIK
B9: unnamed (protein)
chain 1: QVQLQQSGAELVKPGASVKLSCKASGYTFTSYDINWVRQRPEQGLEWIGWIFPGDGSTKYNEKFKGKATLTTDKSSSTAYMQLSRLTSEDSAVYFCAREDYYDNSYYFDYWGQGTTLTVSS
chain 2: DIQMTQTTSSLSASLGDRVTISCRASQDISNYLNWYQQKPDGTVKLLIYYTSRLHSGVPSRFSGSGSGTDYSLTISNLEQEDIATYFCQQGNTLPWTFGGGTKLEIK
B10: unnamed (protein)
chain 1: EVQLVQSGGGLVKPGGSLRLSCAASGFTFSSYSMNWVRQAPGKGLEWVSSISSSSSYIYYADSVKGRFTISRDNAKNSLYLQMNSLRAEDTAVYYCARVTDAFDIWGQGTMVTVSS
chain 2: DIQMTQSPSSVSASIGDRVTITCRASQGIDNWLGWYQQKPGKAPKLLIYDASNLDTGVPSRFSGSGSGTYFTLTISSLQAEDFAVYFCQQAKAFPPTFGGGTKVDIK
B11: unnamed (protein)
chain 1: EVQLVQSGAEVKKPGASVKVSCKASGYTFTDYNMHWVRQAPGQGLEWMGEINPNSGGAGYNQKFKGRVTMTTDTSTSTAYMELRSLRSDDTAVYYCARLGYDDIYDDWYFDVWGQGTTVTVSS
chain 2: DIQMTQSPSSLSASVGDRVTITCRASQDISNYLNWYQQKPGKAPKLLIYYTSRLLSGVPSRFSGSGSGTDFTLTISSLQPEDFATYYCQQGDTLPYTFGGGTKVEIK
B12: unnamed (protein)
chain 1: EVQLVESGGGLVQPGGSLRLSCAASGFTFTDYTMDWVRQAPGKGLEWVADVNPNSGGSIYNQRFKGRFTLSVDRSKNTLYLQMNSLRAEDTAVYYCARNLGPSFYFDYWGQGTLVTVSS
chain 2: DIQMTQSPSSLSASVGDRVTITCKASQDVSIGVAWYQQKPGKAPKLLIYSASYRYTGVPSRFSGSGSGTDFTLTISSLQPEDFATYYCQQYYIYPYTFGQGTKVEIK
B13: unnamed (protein)
chain 1: EVQLVESGGGLVQPGGSLRLSCAVSGLSLTSNSVNWIRQAPGKGLEWVGLIWSNGDTDYNSAIKSRFTISRDTSKSTVYLQMNSLRAEDTAVYYCAREYYGYFDYWGQGTLVTVSS
chain 2: DIQMTQSPSSLSASVGDRVTITCLASEGISSYLAWYQQKPGKAPKLLIYGANSLQTGVPSRFSGSGSATDYTLTISSLQPEDFATYYCQQSYKFPNTFGQGTKVEVK
B14: unnamed (protein)
chain 1: EVQLVESGGGLVQPGGSLRLSCAASGYTFSSYWIEWVRQAPGKGLEWIGEILPGGGDTNYNEIFKGRATFSADTSKNTAYLQMNSLRAEDTAVYYCTRRVPIRLDYWGQGTLVTVSS
chain 2: DIQLTQSPSSLSASVGDRVTITCKASQSVDYEGDSFLNWYQQKPGKAPKLLIYAASNLESGVPSRFSGSGSGTDFTLTISSLQPEDFATYYCQQSNEDPLTFGQGTKVEIK
B15: unnamed (protein)
chain 1: EVQLVESGGGLVQPGGSLRLSCAASGFTFSNYGMSWVRQAPGKGLEWVASISSGGGSTYYPDNVKGRFTISRDDAKNSLYLQMNSLRAEDTAVYYCARGGAGIDYWGQGTLVTVSS
chain 2: DIQMTQSPSSLSASVGDRVTITCKSIQTLLYSSNQKNYLAWFQQKPGKAPKLLIYWASIRKSGVPSRFSGSGSGTDFTLTISSLQPEDLATYYCQQYYSYPLTFGGGTKLEIK
B16: unnamed (protein)
chain 1: QVQLQQPGAELVKPGASVKMSCKASGYTFTSYNMHWVKQTPGRGLEWIGAIYPGNGDTSYNQKFKGKATLTADKSSSTAYMQLSSLTSEDSAVYYCARSTYYGGDWYFNVWGAGTTVTVSA
chain 2: QIVLSQSPAILSASPGEKVTMTCRASSSVSYIHWFQQKPGSSPKPWIYATSNLASGVPVRFSGSGSGTSYSLTISRVEAEDAATYYCQQWTSNPPTFGGGTKLEIK
B17: unnamed (protein)
chain 1: QVQLVQSGAEVKKPGASVKVSCKASGYIFSNYWIQWVRQAPGQGLEWMGEILPGSGSTEYAQKFQGRVTMTADTSTSTAYMELSSLRSEDTAVYYCARYFFGSSPNWYFVWGQGT
chain 2: DIQMTQSPSLSASVGDRVTITCGASENIYGALNWYQRKPGKAPKLLIYGATNLADGVPSRFSGSGSGTDYTLTISSLQPEDFATYYCQNVLNTPLTFGQGTKVEIK
B18: unnamed (protein)
chain 1: EVQLVESGGGLVQPGGSLRLSCAASGYDFTHYGMNWVRQAPGKGLEWVGWINTYTGEPTYAADFKRRFTFSLDTSKSTAYLQMNSLRAEDTAVYYCAKYPYYYGTSHWYFDVWGQGTLVTVSS
chain 2: DIQLTQSPSSLSASVGDRVTITCSASQDISNYLNWYQQKPGKAPKVLIYFTSSLHSGVPSRFSGSGSGTDFTLTISSLQPEDFATYYCQQYSTVPWTFGQGTKVEIK
B19: unnamed (protein)
chain 1: QVQLVESGGGVVQPGRSLRLSCTASGFTFKNYAMHWVRQAPAKGLEWVATISYDGRNIQYADSVKGRFTFSRDNSQDTLYLQLNSLRPEDTAVYYCARPVRSRWLQLGLEDAFHIWGQGTMVTVSS
chain 2: AIRMTQSPSSFSASTGDRVTITCRASQDIRNYVAWYQQKSGKAPKFLIYAASTLQSGVPSRFSGSGSGTDFTLTINSLQSEDFATYYCQQYYNSPPTFGQGTRVEIT
B20: unnamed (protein)
chain 1: QVQLVQSGAEVKKPGSSVKVSCKASGYTFTDQTIHWMRQAPGQGLEWIGYIYPRDDSPKYNENFKGKVTITADKSTSTAYMELSSLRSEDTAVYYCAIPDRSGYAWFIYWGQGTLVTVSS
chain 2: DIQMTQSPSSLSASVGDRVTITCKASRDVAIAVAWYQQKPGKVPKLLIYWASTRHTGVPSRFSGSGSRTDFTLTISSLQPEDVADYFCHQYSSYPFTFGSGTKLEIK

Assay: patients with anti-drug antibodies; higher = more immunogenic
In the case of B1, the “patients with anti-drug antibodies” value is reported as 9.4%. For B2, the “patients with anti-drug antibodies” value was 0%. For B3, the “patients with anti-drug antibodies” value was 0%. For B4, the “patients with anti-drug antibodies” value was 1.5%. In the case of B5, the “patients with anti-drug antibodies” value is reported as 0.2%. For B6, the “patients with anti-drug antibodies” value was 1.4%. In the case of B7, the “patients with anti-drug antibodies” value is reported as 5%. In the case of B8, the “patients with anti-drug antibodies” value is reported as 0%. In the case of B9, the “patients with anti-drug antibodies” value is reported as 85%. For B10, the “patients with anti-drug antibodies” value was 4.1%. For B11, the “patients with anti-drug antibodies” value was 18.1%. With B12 the “patients with anti-drug antibodies” value was 2.8%. With B13 the “patients with anti-drug antibodies” value was 5%. With B14 the “patients with anti-drug antibodies” value was 2.6%. With B15 the “patients with anti-drug antibodies” value was 0%. For B16, the “patients with anti-drug antibodies” value was 11%. In the case of B17, the “patients with anti-drug antibodies” value is reported as 0%. With B18 the “patients with anti-drug antibodies” value was 3.5%. With B19 the “patients with anti-drug antibodies” value was 0%. With B20 the “patients with anti-drug antibodies” value was 24%.
